Results on two substances are retold here after publication PMC7948467, “Discovery of an ultraspecific triuret hydrolase (TrtA) establishes the triuret biodegradation pathway” (The Journal of Biological Chemistry, 2020).

One data set concerns T1, NC(=O)NC(=O)NC(N)=O.
T1 construct: recombinant
Kind of data set: ammonia release, Berthelot assay. Conditions: phosphate buffer, pH optimum, 25 °C, saturation not achieved. The class given is biochemical, Rhodococcus sp. Mel.

In the next data set the test system is T2, NC(=O)NC(N)=O.
T2 construct: recombinant
Kind of data set: ammonia release, Berthelot assay. Type of data set: biochemical, Rhodococcus sp. Mel. Conditions: phosphate buffer, pH optimum, 25 °C.

Data set [1] addresses Triuret hydrolase (TrtA) from Herbaspirillum sp. BH-1, wild type, His-tag cleaved (Herbaspirillum sp. BH-1). Nature of the data set: SEC; HiLoad 16/600 Superdex 200 pg, 50 mM Tris, 200 mM sodium chloride, pH 8, 1 ml/min; His-tag cleaved TrtA.

Chain of RhdBiuH (Rhodococcus sp. Mel) (chain, as listed by the source): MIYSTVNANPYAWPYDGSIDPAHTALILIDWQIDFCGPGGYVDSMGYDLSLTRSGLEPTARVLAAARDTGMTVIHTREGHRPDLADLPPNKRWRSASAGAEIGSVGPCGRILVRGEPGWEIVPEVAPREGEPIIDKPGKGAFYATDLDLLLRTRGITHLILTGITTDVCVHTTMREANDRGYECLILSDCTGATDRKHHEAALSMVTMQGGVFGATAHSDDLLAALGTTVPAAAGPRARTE

As usually defined, the kcat is the number of substrate molecules converted per active site and unit of time at saturation. For orientation: kcat/Km means the second-order rate constant that governs catalysis at low substrate concentration. A word on the Km: it is the concentration of substrate that gives half-maximal velocity. For RhdBiuH (Rhodococcus sp. Mel), in the data set on NC(=O)NC(=O)NC(N)=O, the kcat was found to be 0.14 s⁻¹ and the kcat/Km was found to be 170 ± 40 M⁻¹ s⁻¹. Also, the Km in the data set with NC(=O)NC(N)=O stood at 95 ± 26 µM.
What is called stoichiometry N is the number of molecules, sites or subunits per partner or assembly. In turn, “Triuret hydrolase (TrtA) from Herbaspirillum sp. BH-1, wild type, His-tag cleaved (from UniProt A0A2N6JFX7 1-220) (enzyme)” had a stoichiometry N in data set [1] of 2.
